From US20090311253A1 (AbbVie / Abbott, published 2009)
“And” between values parts separate entries of the source, which are not always exact repeats. Equal values may be shown once. Read-outs that look alike come from different tables or passages of the source.

B1: DVD374 (bispecific antibody, human IgG1, kappa)
heavy: not shown
light: EIVLTQSPDFQSVTPKEKVTITCRASQSIGSSLHWYQQKPDQSPKLLIKYASQSFSGVPSRFSGSGSGTDFTLTINSLEAEDAAAYYCHQSSSLPFTFGPGTKVDIKRTVAAPSVFIFPPDIQMTQSPSSVSASVGDRVTITCRASQGISSWLAWYQQKPGKAPKLLIYEASNLETGVPSRFSGSGSGSDFTLTISSLQPEDFATYYCQQTSSFLLSFGGGTKVEHKRTVAAPSVFIFPPSDEQLKSGTASVVCLLNNFYPREAKVQWKVDNALQSGNSQESVTEQDSKDSTYSLSSTLTLSKADYEKHKVYACEVTHQGLSSPVTKSFNRGEC
notes: vectors V1, V2
B2: DVD382 (bispecific antibody, human IgG1, kappa)
heavy: not shown
light: EIVLTQSPDFQSVTPKEKVTITCRASQSIGSSLHWYQQKPDQSPKLLIKYASQSFSGVPSRFSGSGSGTDFTLTINSLEAEDAAAYYCHQSSSLPFTFGPGTKVDIKRTVAAPSVFIFPPDIQMTQSPSSVSASVGDRVTITCRASQGISSWLAWYQQKPGKAPKLLIYEASNLETGVPSRFSGSGSGSDFTLTISSLQPEDFATYYCQQTSSFLLSFGGGTKVEHKRTVAAPSVFIFPPSDEQLKSGTASVVCLLNNFYPREAKVQWKVDNALQSGNSQESVTEQDSKDSTYSLSSTLTLSKADYEKHKVYACEVTHQGLSSPVTKSFNRGEC
notes: vectors V1, V2
B3: DVD381 (bispecific antibody, human IgG1, kappa)
heavy: not shown
light: DIQMTQSPSSVSASVGDRVTITCRASQGISSWLAWYQQKPGKAPKLLIYEASNLETGVPSRFSGSGSGSDFTLTISSLQPEDFATYYCQQTSSFLLSFGGGTKVEHKRTVAAPSVFIFPPEIVLTQSPDFQSVTPKEKVTITCRASQSIGSSLHWYQQKPDQSPKLLIKYASQSFSGVPSRFSGSGSGTDFTLTINSLEAEDAAAYYCHQSSSLPFTFGPGTKVDIKRTVAAPSVFIFPPSDEQLKSGTASVVCLLNNFYPREAKVQWKVDNALQSGNSQESVTEQDSKDSTYSLSSTLTLSKADYEKHKVYACEVTHQGLSSPVTKSFNRGEC
notes: vectors V1, V2
B4: AB032 (antibody, human IgG1, kappa, V domains shown)
VH: QVQLVESGGGVVQPGRSLRLSCAASGFTFSVYGMNWVRQAPGKGLEWVAIIWYDGDNQYYADSVKGRFTISRDNSKNTLYLQMNGLRAEDTAVYYCARDLRTGPFDYWGQGTLVTVSS
VL: EIVLTQSPDFQSVTPKEKVTITCRASQSIGSSLHWYQQKPDQSPKLLIKYASQSFSGVPSRFSGSGSGTDFTLTINSLEAEDAAAYYCHQSSSLPFTFGPGTKVDIKR
notes: vectors V1 and V2
B5: DVD125 (bispecific antibody, human IgG1, kappa)
heavy: not shown
light: EIVLTQSPDFQSVTPKEKVTITCRASQSIGSSLHWYQQKPDQSPKLLIKYASQSFSGVPSRFSGSGSGTDFTLTINSLEAEDAAAYYCHQSSSLPFTFGPGTKVDIKRTVAAPEIVLTQSPGTLSLSPGERATLSCRASQSVRGRYLAWYQQKPGQAPRLLIYGASSRATGIPDRFSGSGSGTDFTLTISRLEPEDFAVFYCQQYGSSPRTFGQGTKVEIKRTVAAPSVFIFPPSDEQLKSGTASVVCLLNNFYPREAKVQWKVDNALQSGNSQESVTEQDSKDSTYSLSSTLTLSKADYEKHKVYACEVTHQGLSSPVTKSFNRGEC
notes: outer AB032, inner AB018; vectors V1, V2
B6: DVD383 (bispecific antibody, human IgG1, kappa)
heavy: not shown
light: DIQMTQSPSSVSASVGDRVTITCRASQGISSWLAWYQQKPGKAPKLLIYEASNLETGVPSRFSGSGSGSDFTLTISSLQPEDFATYYCQQTSSFLLSFGGGTKVEHKRTVAAPSVFIFPPDIQMTQSPSSLSASVGDRVTITCRASGNIHNYLTWYQQTPGKAPKLLIYNAKTLADGVPSRFSGSGSGTDYTFTISSLQPEDIATYYCQHFWSIPYTFGQGTKLQITTVAAPSVFIFPPSDEQLKSGTASVVCLLNNFYPREAKVQWKVDNALQSGNSQESVTEQDSKDSTYSLSSTLTLSKADYEKHKVYACEVTHQGLSSPVTKSFNRGEC
notes: vectors V1, V2
B7: DVD379 (bispecific antibody, human IgG1, kappa)
heavy: not shown
light: DIQMTQSPSSVSASVGDRVTITCRASQGISSWLAWYQQKPGKAPKLLIYEASNLETGVPSRFSGSGSGSDFTLTISSLQPEDFATYYCQQTSSFLLSFGGGTKVEHKRTVAAPDIQMTQSPSSLSASVGDRVTITCRASGNIHNYLTWYQQTPGKAPKLLIYNAKTLADGVPSRFSGSGSGTDYTFTISSLQPEDIATYYCQHFWSIPYTFGQGTKLQITTVAAPSVFIFPPSDEQLKSGTASVVCLLNNFYPREAKVQWKVDNALQSGNSQESVTEQDSKDSTYSLSSTLTLSKADYEKHKVYACEVTHQGLSSPVTKSFNRGEC
notes: vectors V1, V2
B8: DVD378 (bispecific antibody, human IgG1, kappa)
heavy: not shown
light: EIVLTQSPDFQSVTPKEKVTITCRASQSIGSSLHWYQQKPDQSPKLLIKYASQSFSGVPSRFSGSGSGTDFTLTINSLEAEDAAAYYCHQSSSLPFTFGPGTKVDIKRTVAAPDIQMTQSPSSVSASVGDRVTITCRASQGISSWLAWYQQKPGKAPKLLIYEASNLETGVPSRFSGSGSGSDFTLTISSLQPEDFATYYCQQTSSFLLSFGGGTKVEHKRTVAAPSVFIFPPSDEQLKSGTASVVCLLNNFYPREAKVQWKVDNALQSGNSQESVTEQDSKDSTYSLSSTLTLSKADYEKHKVYACEVTHQGLSSPVTKSFNRGEC
notes: vectors V1, V2
B9: DVD166 (bispecific antibody, human IgG1, kappa)
heavy: not shown
light: EIVLTQSPGTLSLSPGERATLSCRASQSVRGRYLAWYQQKPGQAPRLLIYGASSRATGIPDRFSGSGSGTDFTLTISRLEPEDFAVFYCQQYGSSPRTFGQGTKVEIKRTVAAPQIVLSQSPAILSPSPGEKVTMTCRASSSVSYIHWFQQKPGSSPKPWIYATSNLASGVPVRFSGSGSGTSYSLTISRVEAEDAATYYCQQWTSNPPTFGGGTKLEIKRTVAAPSVFIFPPSDEQLKSGTASVVCLLNNFYPREAKVQWKVDNALQSGNSQESVTEQDSKDSTYSLSSTLTLSKADYEKHKVYACEVTHQGLSSPVTKSFNRGEC
notes: vectors V1, V2; also called RANKL and CD-20 DVD-Ig
B10: DVD377 (bispecific antibody, human IgG1, kappa)
heavy: not shown
light: DIQMTQSPSSVSASVGDRVTITCRASQGISSWLAWYQQKPGKAPKLLIYEASNLETGVPSRFSGSGSGSDFTLTISSLQPEDFATYYCQQTSSFLLSFGGGTKVEHKRTVAAPEIVLTQSPDFQSVTPKEKVTITCRASQSIGSSLHWYQQKPDQSPKLLIKYASQSFSGVPSRFSGSGSGTDFTLTINSLEAEDAAAYYCHQSSSLPFTFGPGTKVDIKRTVAAPSVFIFPPSDEQLKSGTASVVCLLNNFYPREAKVQWKVDNALQSGNSQESVTEQDSKDSTYSLSSTLTLSKADYEKHKVYACEVTHQGLSSPVTKSFNRGEC
notes: vectors V1, V2

Experiments:
Recombinant Human IL-1β [1] = target: T1, Recombinant Human IL-1β (human, UniProt P01584 117-269); assay: direct bind ELISA
T1 construct: also called IL-1b; IL-1B

IL-1α = target: T2, IL-1α (UniProt P01583 113-271); assay: direct bind ELISA
T2 construct: also called IL-1alpha; IL-1a
T2 sequence (looked up): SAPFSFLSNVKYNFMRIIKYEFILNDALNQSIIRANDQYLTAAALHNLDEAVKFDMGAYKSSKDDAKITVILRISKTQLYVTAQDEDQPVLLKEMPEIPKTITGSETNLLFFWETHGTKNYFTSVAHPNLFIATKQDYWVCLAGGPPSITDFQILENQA

Recombinant Human IL-1β [2] = target: T1, Recombinant Human IL-1β; assay: Biacore SPR
Procedure: (§1) The BIACORE assay (Biacore, Inc, Piscataway, N.J.) determines the affinity of antibodies or DVD-Ig with kinetic measurements of on-rate and off-rate constants. Binding of antibodies or DVD-Ig to a target antigen (for example, a purified recombinant target antigen) is determined by surface plasmon resonance-based measurements with a BiacoreR 1000 or 3000 instrument (Biacore® AB, Uppsala, Sweden) using running HBS-EP (10 mM HEPES [pH 7.4], 150 mM NaCl, 3 mM EDTA, and 0.005% surfactant P20) at 25° C. All chemicals are obtained from Biacore® AB (Uppsala, Sweden) or otherwise from a different source as described in the text. For example, approximately 5000 RU of goat anti-mouse IgG, (Fcγ), fragment specific polyclonal antibody (Pierce Biotechnology Inc, Rockford, Ill.) diluted in 10 mM sodium acetate (pH 4.5) is directly immobilized across a CM5 research grade biosensor chip using a standard amine coupling kit according to manufacturer's instructions and procedures at 25 μg/ml. Unreacted moieties on the biosensor surface are blocked with ethanolamine. Modified carboxymethyl dextran surface in flowcell 2 and 4 is used as a reaction surface. Unmodified carboxymethyl dextran without goat anti-mouse IgG in flow cell 1 and 3 is used as the reference surface. For kinetic analysis, rate equations derived from the 1:1 Langmuir binding model are fitted simultaneously to association and dissociation phases of all eight injections (using global fit analysis) with the use of Biaevaluation 4.0.1 software. Purified antibodies or DVD-Ig are diluted in HEPES-buffered saline for capture across goat anti-mouse IgG specific reaction surfaces. Antibodies or DVD-Ig to be captured as a ligand (25 μg/ml) are injected over reaction matrices at a flow rate of 5 μl/min. The association and dissociation rate constants, kₒₙ (M⁻¹s⁻¹) and koff (s⁻¹) are determined under a continuous flow rate of 25 μl/min. Rate constants are derived by making kinetic binding measurements at different antigen concentrations ranging from […]. The equilibrium dissociation constant (M) of the reaction between antibodies or DVD-Igs and the target antigen is then calculated from the kinetic rate constants by the following formula: KD=koff/kₒₙ. Binding is recorded as a function of time and kinetic rate constants are calculated.

Recombinant Human IL-1β [3] = target: T1, Recombinant Human IL-1β; assay: direct bind ELISA; remark: listed apart in the source
Procedure: (§2) Enzyme Linked Immunosorbent Assays to screen for antibodies that bind a desired target antigen were performed as follows. High bind ELISA plates (Corning Costar # 3369, Acton, Mass.) were coated with 100 μL/well of 10 μg/ml of desired target antigen (R&D Systems, Minneapolis, Minn.) or desired target antigen extra-cellular domain/FC fusion protein (R&D Systems, Minneapolis, Minn.) or monoclonal mouse anti-polyhistidine antibody (R&D Systems # MAB050, Minneapolis, Minn.) in phosphate buffered saline (10×PBS, Abbott Bioresearch Center, Media Prep# MPS-073, Worcester, Mass.) overnight at 4° C. Plates were washed four times with PBS containing 0.02% Tween 20. Plates were blocked by the addition of 300 μL/well blocking solution (non-fat dry milk powder, various retail suppliers, diluted to 2% in PBS) for ½ hour at room temperature. Plates were washed four times after blocking with PBS containing 0.02% Tween 20.
(§3) Plates were washed 4 times with PBS containing 0.02% Tween 20.
(§4) One hundred microliters of enhanced TMB solution (Neogen Corp. #308177, K Blue, Lexington, Ky.) was added to each well and incubated for 10 minutes at room temperature. The reaction was stopped by the addition of 50 μL 1N sulphuric acid. Plates were read spectrophotometrically at a wavelength of 450 nm.

[4] = target: T3, Recombinant Human TRANCE/RANKL/TNFSF 11 (human, UniProt O14788 69-317); assay: Biacore SPR
T3 construct: extracellular domain
T3 sequence (looked up): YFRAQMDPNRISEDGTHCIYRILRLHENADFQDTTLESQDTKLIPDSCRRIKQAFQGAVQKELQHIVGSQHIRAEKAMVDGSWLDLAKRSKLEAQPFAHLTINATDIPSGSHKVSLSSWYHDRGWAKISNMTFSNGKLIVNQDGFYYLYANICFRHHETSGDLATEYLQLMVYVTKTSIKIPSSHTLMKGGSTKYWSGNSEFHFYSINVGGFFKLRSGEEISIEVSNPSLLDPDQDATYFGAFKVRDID
Procedure: as §1

Recombinant Human IL-1β [5] = target: T1, Recombinant Human IL-1β; assay: cell-based or functional assay
[6] = target: T3, Recombinant Human TRANCE/RANKL/TNFSF 11; assay: direct bind ELISA
Procedure: as §2, §3, §4

Row | Binder | EC50 (Recombinant Human IL-1β [1]) [nM] | EC50 (IL-1α) [nM] | also measured
1 | B1 | 6.47 | 8.78 | –
2 | B2 | 6.52 | 4.61 | –
3 | B3 | 500 | 965 | –
4 | B4 | 0.91 | – | Kd (Recombinant Human IL-1β [2]): 0.0131 nM; EC50 (Recombinant Human IL-1β [3]): 2.61 nM and 5.27 nM
5 | B5 | – | – | Kd [4]: 3.5 nM; koff [4]: 7.45e-05 s⁻¹; kon [4]: 21200 M⁻¹ s⁻¹; Kd (Recombinant Human IL-1β [2]): 0.0829 nM; koff (Recombinant Human IL-1β [2]): 0.000107 s⁻¹; kon (Recombinant Human IL-1β [2]): 1.29e+06 M⁻¹ s⁻¹; IL-1β Neutralization Assay EC50 (MRC5 cells, hIL-8) (Recombinant Human IL-1β [5]): 0.043 nM; EC50 [6]: 2.89 nM; EC50 (Recombinant Human IL-1β [3]): 4.36 nM
6 | B6 | 2620 | – | –
7 | B7 | 150 | – | –
8 | B8 | 1.89 | 2.86 | –
9 | B9 | – | – | EC50 [6]: 0.12 nM
10 | B10 | 165 | 143 | –
